Results published in US9796965B2, “Use of Taq polymerase mutant enzymes for nucleic acid amplification in the presence of PCR inhibitors” (DNA Polymerase Technology Inc., priority 2006, dated 2017).
Entries after “also recorded” stand apart in the source; their conditions may differ.

Experiments:
[1] = Functional analysis of codon 708 saturated mutagenesis variants for resistance to PCR inhibitors; type: biochemical; conditions: for functionality of the 708 substitution: KlenTaq or full-length Taq background
Experimental: Single amino acid changes of the wild type Taq Glu708 were implicated in both selected qualities of the mutants, blood and soil-resistance.
Saturated mutagenesis was performed at codon 708 of Taq to test functionally the full spectrum of all possible substitutions at this critical position.

[2] = tested on: 0.32 kbp 16S microbial target; assay: Real-time PCR of 16S microbial target double challenged with 5% blood and SYBR green dilutions; conditions: for amplification under double challenge: SYBR green dilutions from 32×, 40 cycles
[3] = tested on: 630 bp CCR5 gene target; assay: Real-time PCR of human CCR5 target mixed with crude soil extract and SYBR titration; type: biochemical; conditions: 4 ng human DNA mixed with crude soil extract, SYBR titrated
Experimental: A 630 bp CCR5 gene target was amplified from 4 ng of human DNA mixed with crude soil extract and various amounts of SYBR. Klentaq-10 mutant enzyme was compared to it's wild type precursor, and FLAC-22 (SEQ ID NO: 2) was compared to the wild type Fast Start Taq polymerase (Roche). SYBR Green fluorescent dye was titrated to optimize the fluorescent signal for real time detection. PCR was performed in real-time cycler Opticon2, and the amplified products were analyzed both by gel electrophoresis (bottom panels) and SYBR Green dye melting curve profile (top panels).

[4] = tested on: 0.6 kbp Bacillus cereus target DNA; assay: Real-time PCR of 0.6 kbp Bacillus cereus target challenged with two-fold SYBR green dilutions; conditions: for SYBR concentration above which amplification failed / SYBR concentration in the presence of which the 0.6 kbp Bacillus cereus target DNA was amplified: 2.5 units enzyme per 50 ul, 20 pg genomic DNA, 40 cycles, no blood
[5] = tested on: anthrax genome target (1.3 kb Bacillus anthracis); type: biochemical; conditions: 5% human blood, 32× SYBR Green
[6] = tested on: 244 bp influenza virus RNA target; type: biochemical; conditions: purified RNA and mimic crude samples with 8% plasma, serum, whole blood; PEC-Plus enhancer
[7] = tested on: 244 bp influenza virus target; type: biochemical; conditions: 5% human serum, 200 μM TaqMan probe, PEC-Plus enhancer
[8] = tested on: 0.25 kbp Lambda specific target; assay: Real-time PCR of Lambda target challenged with two-fold SYBR green dilutions; conditions: for SYBR concentration in the presence of which the 0.25 kbp lambda target was amplified: purified DNA template, 2.5 units per 50 ul, 35 cycles
[9] = tested on: endogenous 600 bp target of Bacillus Cereus; assay: Real-time PCR of endogenous Bacillus Cereus target from crude soil extract; type: biochemical; conditions: soil extract 16%, 8%, 4%, 2%
[10] = tested on: 0.6 kbp Bacillus cereus target DNA; assay: Real-time PCR of Bacillus cereus target double challenged with 5% and 10% blood and SYBR green dilutions

FLAC-12: full-length Taq mutant with L substitution at 708, corresponding to Klentaq 12
functionality of the 708 substitution [1]: efficient

FLAC-4: full-length Taq mutant with I substitution at 708
functionality of the 708 substitution [1]: only functional in Taq

FLAC-10: full-length Taq mutant with K substitution at 708, corresponding to Klentaq10
functionality of the 708 substitution [1]: efficient

Fast Start Taq: commercial wild type Taq enzyme (Roche)
post PCR melting curve analysis ([2]; 5% blood): did do not show the correct melting temperature of the product at all | amplification under double challenge ([2]; 5% blood): able to amplify only the positive control | melting curve profile in crude soil samples [3]: showed a melting curve at very low SYBR concentration | SYBR concentration above which amplification failed [4]: higher than 0.2 ×

FLAC-3: full-length Taq mutant with Q substitution at 708
functionality of the 708 substitution [1]: only functional in Taq

B1: FLAC-22: SEQ ID NO: 2; full-length Taq with substitutions E626K, I707L, E708N (protein)
chain: MRGMLPLFEPKGRVLLVDGHHLAYRTFHALKGLTTSRGEPVQAVYGFAKSLLKALKEDGDAVIVVFDAKAPSFRHEAYGGYKAGRAPTPEDFPRQLALIKELVDLLGLARLEVPGYEADDVLASLAKKAEKEGYEVRILTADKDLYQLLSDRIHVLHPEGYLITPAWLWEKYGLRPDQWADYRALTGDESDNLPGVKGIGEKTARKLLEEWGSLEALLKNLDRLKPAIREKILAHMDDLKLSWDLAKVRTDLPLEVDFAKRREPDRERLRAFLERLEFGSLLHEFGLLESPKALEEAPWPPPEGAFVGFVLSRKEPMWADLLALAAARGGRVHRAPEPYKALRDLKEARGLLAKDLSVLALREGLGLPPGDDPMLLAYLLDPSNTTPEGVARRYGGEWTEEAGERAALSERLFANLWGRLEGEERLLWLYREVERPLSAVLAHMEATGVRLDVAYLRALSLEVAEEIARLEAEVFRLAGHPFNLNSRDQLERVLFDELGLPAIGKTEKTGKRSTSAAVLEALREAHPIVEKILQYRELTKLKSTYIDPLPDLIHPRTGRLHTRFNQTATATGRLSSSDPNLQNIPVRTPLGQRIRRAFIAEEGWLLVALDYSQIELRVLAHLSGDKNLIRVFQEGRDIHTETASWMFGVPREAVDPLMRRAAKTINFGVLYGMSAHRLSQELAIPYEEAQAFIERYFQSFPKVRAWLNKTLEEGRRRGYVETLFGRRRYVPDLEARVKSVREAAERMAFNMPVQGTAADLMKLAMVKLFPRLEEMGARMLLQVHDELVLEAPKERAEAVARLAKEVMEGVYPLAVPLEVEVGIGEDWLSAKE
modifications: FLAC-22
notes: full-length Taq with substitutions E626K, I707L, E708N
amplification under double challenge ([2]; 5% blood): capable of amplifying with all SYBR concentrations | SYBR green necessary for real-time PCR detection ([2]; 5% blood, melting curve analysis): at least 4 × | resistance toward SYBR green ([2]; with 5% blood in the reaction): at least 32 × | resistance to PCR inhibitors among all 708 mutant variants [1]: superior in all aspects of inhibitors resistance to PCR inhibitors | functionality of the 708 substitution [1]: only functional in Taq | amplification/detection of Bacillus anthracis target in blood [5]: successful real-time PCR detection | RT-PCR amplification of influenza virus gene [6]: work in RT-PCR | SYBR concentration in the presence of which the 0.6 kbp Bacillus cereus target DNA was amplified [4]: 1.6 × | real-time RT-PCR TaqMan detection of influenza virus gene [7]: work in RT-PCR TaqMan assays | SYBR concentration in the presence of which the 0.25 kbp lambda target was amplified [8]: 2 × | resistance toward SYBR green ([8]; without blood in the reaction (comparison value given in Example 4)): 2 ×

B2: KlenTaq-10: SEQ ID NO: 1; N-terminal deletion at 278 of full-length wild type Taq with substitutions E626K, I707L, E708K (protein)
chain: MGLLHEFGLLESPKALEEAPWPPPEGAFVGFVLSRKEPMWADLLALAAARGGRVHRAPEPYKALRDLKEARGLLAKDLSVLALREGLGLPPGDDPMLLAYLLDPSNTTPEGVARRYGGEWTEEAGERAALSERLFANLWGRLEGEERLLWLYREVERPLSAVLAHMEATGVRLDVAYLRALSLEVAEEIARLEAEVFRLAGHPFNLNSRDQLERVLFDELGLPAIGKTEKTGKRSTSAAVLEALREAHPIVEKILQYRELTKLKSTYIDPLPDLIHPRTGRLHTRFNQTATATGRLSSSDPNLQNIPVRTPLGQRIRRAFIAEEGWLLVALDYSQIELRVLAHLSGDKNLIRVFQEGRDIHTETASWMFGVPREAVDPLMRRAAKTINFGVLYGMSAHRLSQELAIPYEEAQAFIERYFQSFPKVRAWLKKTLEEGRRRGYVETLFGRRRYVPDLEARVKSVREAAERMAFNMPVQGTAADLMKLAMVKLFPRLEEMGARMLLQVHDELVLEAPKERAEAVARLAKEVMEGVYPLAVPLEVEVGIGEDWLSAKE
modifications: Klentaq-10
notes: N-terminal deletion at 278 of full-length wild type Taq with substitutions E626K, I707L, E708K
resistance to PCR inhibitors among all 708 mutant variants [1]: superior in all aspects of inhibitors resistance to PCR inhibitors | functionality of the 708 substitution [1]: efficient | amplification/detection of Bacillus anthracis target in blood [5]: specifically amplified the target in 5% blood | amplification in the presence of crude soil extract [9]: outperforming the two commercial Tags; also recorded: amplified successfully | RT-PCR amplification of influenza virus gene [6]: work in RT-PCR | SYBR concentration allowing amplification compared to wild type KlenTaq ([10]; 5% and 10% blood, SYBR dilutions from 64×): at least two times higher concentration of SYBR | resistance toward SYBR green ([10]; with blood (5%, 10%) in the reaction): at least 64 × | SYBR concentration in the presence of which the 0.6 kbp Bacillus cereus target DNA was amplified [4]: 4 × | resistance toward SYBR green ([4]; no blood in the reaction (comparison value given in Example 3)): 4 × | real-time RT-PCR TaqMan detection of influenza virus gene [7]: work in RT-PCR TaqMan assays | SYBR concentration in the presence of which the 0.25 kbp lambda target was amplified [8]: at least 4 ×

B3: wild type KlenTaq: SEQ ID NO: 3; N-terminal deletion at 278 of full-length Taq, Met/Gly replacing amino acids 279 and 280 (protein)
chain: MGLLHEFGLLESPKALEEAPWPPPEGAFVGFVLSRKEPMWADLLALAAARGGRVHRAPEPYKALRDLKEARGLLAKDLSVLALREGLGLPPGDDPMLLAYLLDPSNTTPEGVARRYGGEWTEEAGERAALSERLFANLWGRLEGEERLLWLYREVERPLSAVLAHMEATGVRLDVAYLRALSLEVAEEIARLEAEVFRLAGHPFNLNSRDQLERVLFDELGLPAIGKTEKTGKRSTSAAVLEALREAHPIVEKILQYRELTKLKSTYIDPLPDLIHPRTGRLHTRFNQTATATGRLSSSDPNLQNIPVRTPLGQRIRRAFIAEEGWLLVALDYSQIELRVLAHLSGDENLIRVFQEGRDIHTETASWMFGVPREAVDPLMRRAAKTINFGVLYGMSAHRLSQELAIPYEEAQAFIERYFQSFPKVRAWIEKTLEEGRRRGYVETLFGRRRYVPDLEARVKSVREAAERMAFNMPVQGTAADLMKLAMVKLFPRLEEMGARMLLQVHDELVLEAPKERAEAVARLAKEVMEGVYPLAVPLEVEVGIGEDWLSAKE
modifications: Klentaq-1
melting curve profile in crude soil samples [3]: showed a melting curve at very low SYBR concentration | SYBR concentration above which amplification failed [4]: higher than 1 ×
